Assay results reported in publication PMC8809517, “Cofactor-independent RNA editing by a synthetic S-type PPR protein”.
Positions count from the first letter of the chain named.

T1: GFP-9S library array, motif 4 ND N98L;D124W (synthetic construct, N98L;D124W)
T1 chain: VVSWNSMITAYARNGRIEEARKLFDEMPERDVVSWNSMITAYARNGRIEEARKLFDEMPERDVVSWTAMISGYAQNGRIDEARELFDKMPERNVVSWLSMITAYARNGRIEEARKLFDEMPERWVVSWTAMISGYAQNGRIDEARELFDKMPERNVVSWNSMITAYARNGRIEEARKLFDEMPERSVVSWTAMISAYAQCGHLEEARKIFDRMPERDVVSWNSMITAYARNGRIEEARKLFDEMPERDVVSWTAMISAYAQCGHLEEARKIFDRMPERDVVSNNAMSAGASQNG

T2: GFP-9S library array, motif 4 ND N98P;D124Y (synthetic construct, N98P;D124Y)
T2 chain: T1 chain with L98P, W124Y

T3: GFP-9S library array, motif 4 ND N98G (synthetic construct, N98G)
T3 chain: T1 chain with L98G, W124D

T4: GFP-9S library array, motif 4 ND N98Y;D124T (synthetic construct, N98Y;D124T)
T4 chain: T1 chain with L98Y, W124T

T5: GFP-9S library array, motif 4 ND N98T (synthetic construct, N98T)
T5 chain: T1 chain with L98T, W124D

B1: Cy5-rpoA (ssRNA)
RNA: AUUACACGUGA
B2: Cy5-rpoA-G (ssRNA)
RNA: AUUAGACGUGA
B3: IR-rpoA-A (ssRNA)
RNA: AUUAAACGUGA
B4: IR-rpoA-U (ssRNA)
RNA: AUUAUACGUGA

What was measured:
Assay in all cases: high-throughput RNA pulldown from lysate on Ni-NTA beads; HRP: 50 mM Tris pH 8, 150 mM NaCl, 1 mM beta-mercaptoethanol, 50 ug/ml BSA, 3 ug/ml yeast RNA, 0.5% heparin; ITC and FP: Tris pH 8, 200 mM KCl, 5% glycerol; MST: 50 mM Tris pH 8, 200 mM NaCl, 1 mM DTT, BSA, heparin, 0.05% Tween 20
Conditions in all cases: tags: N-terminal His-eGFP
[1] = target: T1, GFP-9S library array, motif 4 ND …
[2] = target: T2, GFP-9S library array, motif 4 ND …
[3] = target: T3, GFP-9S library array, motif 4 ND N98G
[4] = target: T4, GFP-9S library array, motif 4 ND …
[5] = target: T5, GFP-9S library array, motif 4 ND N98T

Binder	Kd ([1]; label: 5' Cy5)	Kd ([2]; label: 5' Cy5)	Kd ([3]; label: 5' Cy5)	Kd ([4]; label: 5' Cy5)	Kd ([5]; label: 5' Cy5)	Kd ([1]; label: 5' IRDye 800CW)	Kd ([2]; label: 5' IRDye 800CW)	Kd ([3]; label: 5' IRDye 800CW)	Kd ([4]; label: 5' IRDye 800CW)	Kd ([5]; label: 5' IRDye 800CW)
B1	111 nM	146 nM	402 nM	96.3 nM	97.5 nM	–	–	–	–	–
B2	99.9 nM	168 nM	32.5 nM	105 nM	5.06 nM	–	–	–	–	–
B3	–	–	–	–	–	247 nM	416 nM	495 nM	158 nM	91.7 nM
B4	–	–	–	–	–	248 nM	299 nM	408 nM	75 nM	23 nM
